{"source": "patent US20240226230A1", "about": "(MAYO FOUNDATION FOR MEDICAL EDUCATION AND RESEARCH, published 2024)", "key": {"[1]": {"biological_target": "T1, endogenous Nup62 (human, UniProt P37198 2-522)", "T1 construct": "Detected with anti-Nup62", "T1 sequence (looked up)": "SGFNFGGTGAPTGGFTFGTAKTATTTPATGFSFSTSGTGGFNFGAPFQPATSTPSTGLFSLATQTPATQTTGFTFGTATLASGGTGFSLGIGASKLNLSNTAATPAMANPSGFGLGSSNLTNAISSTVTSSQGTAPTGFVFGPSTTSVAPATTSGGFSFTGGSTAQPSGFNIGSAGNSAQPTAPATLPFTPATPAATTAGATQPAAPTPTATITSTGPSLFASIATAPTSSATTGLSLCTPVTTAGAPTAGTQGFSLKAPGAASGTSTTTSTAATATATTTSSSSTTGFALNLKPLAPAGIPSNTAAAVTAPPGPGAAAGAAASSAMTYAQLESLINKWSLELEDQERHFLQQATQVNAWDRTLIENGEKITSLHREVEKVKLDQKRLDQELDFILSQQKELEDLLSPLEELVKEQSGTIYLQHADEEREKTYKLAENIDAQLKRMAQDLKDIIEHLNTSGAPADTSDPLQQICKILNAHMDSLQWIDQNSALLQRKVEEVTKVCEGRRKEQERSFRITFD", "assay": "co-IP, western blot", "description": "RanGTP and importin-α interact with H1-8 and H8-19, respectively. FG-Nups bind to two regions of KPNB1, H5-7 and H14-16. FIG. 21B) Lysates from HEK293T cells expressing GFP, GFP-KPNB1 full-length (FL), N-terminal fragments of KPNB1 (H1-9 . . . H1) or the C-terminal fragment of KPNB1 (H10-19) were subjected to immunoprecipitation with GFP-Trap magnetic beads. Whole cell lysates (input) and immunoprecipitates (IP) were subjected to western blot analysis using indicated antibodies. KPNB1 H1-8, the smallest fully active KPNB1 fragment in reducing TDP-43 aggregation, strongly interacts with FG-Nups and Ran, and weakly with importin-al in comparison with full-length KPNB1. FIG. 21C) (Top) Schematic domain structure of KPNB1 H1-8^mNIS harboring four missense mutations (1178A, F217A, Y255A, I263R) in the nucleoporin-interacting site (NIS). (Bottom) Lysates from HEK293T cells expressing GFP, GFP-KPNB1 H1-8^WT or H1-8^mNIS were subjected to immunoprecipitation with GFP-Trap magnetic beads. Whole cell lysates (input) and immunoprecipitates (IP) were subjected to western blot analysis using indicated antibodies. […] Hoechst staining was used to outline nuclei. Scale bar: 5 μm. […] FIG. 21G) Quantification of the percentage of cells with cytoplasmic GR aggregates positive for endogenous TDP-43."}, "[2]": {"biological_target": "T2, Untagged KPNB1 (Homo sapiens (Human), UniProt Q14974 1-876)", "T2 construct": "KPNB1 amplified by PCR and cloned into pEGFP-C1 lacking the GFP tag; also called Wildtype KPNB1", "T2 sequence (Q14974 whole entry)": "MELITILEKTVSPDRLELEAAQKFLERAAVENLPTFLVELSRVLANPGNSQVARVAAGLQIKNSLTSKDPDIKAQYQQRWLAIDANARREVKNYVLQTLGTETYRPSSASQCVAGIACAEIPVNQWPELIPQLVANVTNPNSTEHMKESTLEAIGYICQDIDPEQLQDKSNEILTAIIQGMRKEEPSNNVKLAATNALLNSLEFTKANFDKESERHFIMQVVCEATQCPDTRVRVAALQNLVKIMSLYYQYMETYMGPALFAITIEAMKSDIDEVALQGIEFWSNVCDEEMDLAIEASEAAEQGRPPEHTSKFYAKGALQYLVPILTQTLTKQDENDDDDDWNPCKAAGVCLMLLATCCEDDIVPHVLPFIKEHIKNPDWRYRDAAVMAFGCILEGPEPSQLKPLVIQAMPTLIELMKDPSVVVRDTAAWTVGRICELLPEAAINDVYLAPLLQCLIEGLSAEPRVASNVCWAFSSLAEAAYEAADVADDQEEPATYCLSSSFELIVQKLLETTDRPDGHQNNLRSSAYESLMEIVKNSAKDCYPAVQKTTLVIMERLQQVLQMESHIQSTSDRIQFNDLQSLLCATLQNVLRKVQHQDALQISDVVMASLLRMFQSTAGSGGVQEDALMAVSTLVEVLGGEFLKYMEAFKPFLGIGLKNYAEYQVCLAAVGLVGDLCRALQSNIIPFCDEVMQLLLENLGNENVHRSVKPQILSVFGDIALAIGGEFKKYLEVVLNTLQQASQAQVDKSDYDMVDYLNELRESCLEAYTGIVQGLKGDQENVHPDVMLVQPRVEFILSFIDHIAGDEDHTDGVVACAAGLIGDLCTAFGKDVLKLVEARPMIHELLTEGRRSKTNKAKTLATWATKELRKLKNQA", "assay": "GFP-Trap IP from HEK293T lysates, western blot", "description": "(§1) FIGS. 29A-29C: Untagged KPNB1 interacts with both the RRM2 and PrLD of TDP-CTF. FIG. 29A) (Left) Lysates from HEK293T cells expressing GFP alone, or untagged KPNB1 with GFP, GFP-TDP-CTF or GFP-TDP43^WT were subjected to immunoprecipitation with GFP-Trap magnetic beads. Whole cell lysates (input) and immunoprecipitates (IP) were subjected to western blot analysis using indicated antibodies. (Right) Quantification of relative KPNB1 levels in IP normalized by KPNB1 levels in input. Statistical analysis was performed using one-way ANOVA and Bonferroni's post hoc test (**p<0.01, ***p<0.001, n=3). […] FIG. 29C) (Left) Lysates from HEK293T cells expressing GFP alone, or untagged KPNB1 with GFP, GFP-TDP-CTF, GFP-TDP-CTF^non-PrLD or GFP-TDP-PrLD were subjected to immunoprecipitation with GFP-Trap magnetic beads. Whole cell lysates (input) and immunoprecipitates (IP) were subjected to western blot analysis using indicated antibodies. (Right) Quantification of relative KPNB1 levels in IP normalized by KPNB1 levels in input. Statistical analysis was performed using one-way ANOVA and Bonferroni's post hoc test (***p<0.001, n=3).\n(§2) FIGS. 31A-31C: The PrLD of TDP-43 interacts with FG-Nups and KPNB1. FIG. 31A) Immunofluorescence (IF) of HEK293T cells expressing GFP or GFP-TDP-PrLD and stained for endogenous Nup98 and Nup62. TDP-PrLD forms small cytoplasmic foci positive for Nup62. FIG. 31B) IF of HEK293T cells expressing GFP or GFP-TDP-PrLD and stained for endogenous KPNB1. KPNB1 colocalizes with TDP-PrLD foci in the cytoplasm. Hoechst staining was used to outline nuclei. Scale bar: 5 μm. FIG. 31C) Lysates from HEK293T cells expressing GFP or GFP-TDP-PrLD were subjected to immunoprecipitation with GFP-Trap magnetic beads. Whole cell lysates (input) and immunoprecipitates (IP) were subjected to western blot analysis using indicated antibodies. The PrLD of TDP-43 interacts with Nup62, Nup98 and KPNB1, but not with Ran.\n(§3) HEK293T cells were seeded in 6-well plates and transfected for 48 hours. Cells were then lysed in IP Lysis buffer (Fisher) supplemented with a protease inhibitor cocktail (Roche), and were centrifuged at 15000 rpm for 20 minutes at 4° C. A small aliquot of the recovered supernatant was set aside (input)."}, "[3]": {"biological_target": "endogenous Ran (human, UniProt P62826 2-216)", "assay": "GFP-Trap IP from HEK293T lysates, western blot", "description": "as §1, §2, §3"}, "[4]": {"biological_target": "T3, endogenous Nup98 (human, UniProt P52948 1-880)", "T3 sequence (looked up)": "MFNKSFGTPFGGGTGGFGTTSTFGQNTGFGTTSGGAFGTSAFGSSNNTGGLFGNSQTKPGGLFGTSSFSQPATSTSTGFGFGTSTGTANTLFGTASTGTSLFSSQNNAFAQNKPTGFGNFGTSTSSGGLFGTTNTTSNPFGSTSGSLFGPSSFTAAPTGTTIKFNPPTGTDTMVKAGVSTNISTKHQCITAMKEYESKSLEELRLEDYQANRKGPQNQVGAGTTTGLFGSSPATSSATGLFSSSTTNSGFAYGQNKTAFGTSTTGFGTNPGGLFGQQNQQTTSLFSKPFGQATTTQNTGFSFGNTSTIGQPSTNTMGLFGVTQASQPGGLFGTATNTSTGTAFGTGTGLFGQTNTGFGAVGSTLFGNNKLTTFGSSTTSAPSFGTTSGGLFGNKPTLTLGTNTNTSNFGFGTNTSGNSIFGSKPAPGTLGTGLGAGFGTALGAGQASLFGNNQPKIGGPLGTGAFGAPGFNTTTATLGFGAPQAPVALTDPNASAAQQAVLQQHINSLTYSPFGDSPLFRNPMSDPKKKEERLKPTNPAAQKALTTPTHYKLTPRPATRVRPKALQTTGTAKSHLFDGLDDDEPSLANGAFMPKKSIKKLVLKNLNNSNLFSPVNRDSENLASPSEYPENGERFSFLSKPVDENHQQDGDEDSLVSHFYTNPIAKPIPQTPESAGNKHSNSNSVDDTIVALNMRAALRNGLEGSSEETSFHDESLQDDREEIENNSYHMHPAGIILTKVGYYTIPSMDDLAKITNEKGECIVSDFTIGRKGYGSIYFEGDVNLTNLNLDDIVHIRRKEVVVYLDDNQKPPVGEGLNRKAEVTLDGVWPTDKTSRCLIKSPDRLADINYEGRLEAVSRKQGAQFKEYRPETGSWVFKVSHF", "assay": "GFP-Trap IP from HEK293T lysates, western blot", "description": "as §1, §2, §3"}, "[5]": {"biological_target": "T1, endogenous Nup62", "assay": "co-localisation by immunofluorescence in HEK293T cells (not a direct binding assay)", "description": "as §2"}, "[6]": {"biological_target": "T4, endogenous KPNB1 (human, UniProt Q14974 1-876)", "T4 construct": "Endogenous protein detected with anti-KPNB1", "T4 sequence (Q14974 whole entry)": "as the sequence (Q14974 whole entry) above", "assay": "co-localisation by immunofluorescence in HEK293T cells (not a direct binding assay)", "description": "as §2"}, "[7]": {"biological_target": "T5, Nup62-mCherry (UniProt P37198 1-522)", "T5 construct": "mCherry replaced GFP in pNup62-EGFP3; also called mCherry-tagged Nup62; not shown: mCherry tag", "T5 sequence": "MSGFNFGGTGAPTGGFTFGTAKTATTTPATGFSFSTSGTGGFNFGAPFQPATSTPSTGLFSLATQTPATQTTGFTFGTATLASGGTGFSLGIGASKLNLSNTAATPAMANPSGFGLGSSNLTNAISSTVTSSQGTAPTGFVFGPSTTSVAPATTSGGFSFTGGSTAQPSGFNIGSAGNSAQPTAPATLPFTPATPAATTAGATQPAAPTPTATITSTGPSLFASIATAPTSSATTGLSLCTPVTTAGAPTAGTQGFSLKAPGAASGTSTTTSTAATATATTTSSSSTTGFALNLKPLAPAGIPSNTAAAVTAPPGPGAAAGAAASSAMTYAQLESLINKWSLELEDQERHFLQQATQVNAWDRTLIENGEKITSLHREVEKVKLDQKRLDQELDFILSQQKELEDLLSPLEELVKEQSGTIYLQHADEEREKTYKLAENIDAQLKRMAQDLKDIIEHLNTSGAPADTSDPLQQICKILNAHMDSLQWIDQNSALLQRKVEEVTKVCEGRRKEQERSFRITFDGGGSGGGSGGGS", "assay": "co-localisation by fluorescence microscopy of co-transfected cells"}, "[8]": {"biological_target": "T6, GFP-Nup98 (UniProt P52948 1-880)", "T6 construct": "Bought plasmid; not shown: GFP tag", "T6 sequence (looked up)": "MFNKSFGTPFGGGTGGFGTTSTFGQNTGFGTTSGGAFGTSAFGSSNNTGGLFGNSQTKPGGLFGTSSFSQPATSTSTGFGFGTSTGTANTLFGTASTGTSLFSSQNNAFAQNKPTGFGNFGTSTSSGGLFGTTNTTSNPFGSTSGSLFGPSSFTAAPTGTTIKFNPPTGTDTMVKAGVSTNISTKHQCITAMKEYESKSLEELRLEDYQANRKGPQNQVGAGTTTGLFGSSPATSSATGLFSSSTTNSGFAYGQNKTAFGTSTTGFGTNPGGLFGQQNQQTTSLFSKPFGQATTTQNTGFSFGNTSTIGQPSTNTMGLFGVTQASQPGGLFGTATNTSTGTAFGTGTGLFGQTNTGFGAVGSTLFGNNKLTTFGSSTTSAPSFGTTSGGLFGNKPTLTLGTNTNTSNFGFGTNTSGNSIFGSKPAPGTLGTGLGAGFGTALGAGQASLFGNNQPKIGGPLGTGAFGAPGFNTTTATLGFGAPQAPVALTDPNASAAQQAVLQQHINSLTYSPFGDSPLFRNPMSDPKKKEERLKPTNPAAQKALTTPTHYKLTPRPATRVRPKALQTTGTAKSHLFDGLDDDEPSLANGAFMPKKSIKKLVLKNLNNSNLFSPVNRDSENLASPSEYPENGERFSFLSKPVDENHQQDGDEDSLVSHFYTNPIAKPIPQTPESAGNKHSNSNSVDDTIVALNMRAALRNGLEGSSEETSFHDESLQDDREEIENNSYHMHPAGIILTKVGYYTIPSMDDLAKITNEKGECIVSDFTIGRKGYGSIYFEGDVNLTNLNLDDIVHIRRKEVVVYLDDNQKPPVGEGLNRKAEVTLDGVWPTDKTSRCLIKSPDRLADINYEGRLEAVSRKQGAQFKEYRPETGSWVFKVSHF", "assay": "co-localisation by immunofluorescence in HEK293T cells (FIG. 35)", "description": "FIG. 35: Nup98 strongly associates with TDP-CTF^WT, but not TDP-CTF^VLIM-F and sTDP. […] Arrowheads point to co-aggregation. Hoechst staining was used to outline nuclei. Scale bar: 5 μm."}}, "data": [{"binder": "GFP-KPNB1 H1-8^mNIS (receptor, also called KPNB1-mNIS; not shown: GFP/EGFP tag (pEGFP-C1, Clontech)) GGGSGGGSGGGSMELITILEKTVSPDRLELEAAQKFLERAAVENLPTFLVELSRVLANPGNSQVARVAAGLQIKNSLTSKDPDIKAQYQQRWLAIDANARREVKNYVLQTLGTETYRPSSASQCVAGIACAEIPVNQWPELIPQLVANVTNPNSTEHMKESTLEAIGYICQDIDPEQLQDKSNEILTAIAQGMRKEEPSNNVKLAATNALLNSLEFTKANFDKESERHAIMQVVCEATQCPDTRVRVAALQNLVKIMSLYYQYMETAMGPALFARTIEAMKSDIDEVALQGIEFWSNVCDEEMDLAIEASEAAEQGRPPEHTSKFYAKGALQYLVPILTQTLTKQDENDDDDDWNPCKAAGVCLMLLATCCED", "values": [{"measurement": "binding result", "setting": "[1]", "value": "no binding"}]}, {"binder": "GFP-TDP-PrLD (other, human, also called GFP-TDP-43 PrLD; TDP-PrLD (aa275-414); not shown: GFP/EGFP tag (pEGFP-C1, Clontech)) GGGSGGGSGGGSRFGGNPGGFGNQGGFGNSRGGGAGLGNNQGSNMGGGMNFGAFSINPAMMAAAQAALQSSWGMMGMLASQQNQSGPSGNNQNQGNMQREPNQAFGSGNNSYSGSNSGAAIGWGSASNAGSGSGFNGGFGSSMDSKSSGWGM", "values": [{"measurement": "binding result", "setting": "[2]", "value": "binds"}, {"measurement": "binding result", "setting": "[3]", "value": "no binding"}, {"measurement": "binding result", "setting": "[4]", "value": "binds"}, {"measurement": "binding result", "setting": "[5]", "value": "binds"}, {"measurement": "binding result", "setting": "[6]", "value": "binds"}]}, {"binder": "GFP-TDP-43^mNLS 1-265 (other, human, not shown: GFP/EGFP tag (pEGFP-C1, Clontech)) GGGSGGGSGGGSMSEYIRVTEDENDEPIEIPSEDDGTVLLSTVTAQFPGACGLRYRNPVSQCMRGVRLVEGILHAPDAGWGNLVYVVNYPKDNAAAMDETDASSAVAVAAAVQKTSDLIVLGLPWKTTEQDLKEYFSTFGEVLMVQVKKDLKTGHSKGFGFVRFTEYETQVKVMSQRHMIDGRWCDCKLPNSKQSQDEPLRSRKVFVGRCTEDMTEDELREFFSQYGDVMDVFIPKPFRAFAFVTFADDQIAQSLCGEDLIIKGISVHISNAEPKHN", "values": [{"measurement": "binding result", "setting": "[7]", "value": "no binding"}]}, {"binder": "mCherry-TDP-CTF^VLIM-F (other, also called mCherry-tagged TDP-CTF^VLIM-F; not shown: mCherry tag (mCherry-C1, Clontech)) GGGSGGGSGGGSREFFSQYGDVMDVFIPKPFRAFAFVTFADDQIAQSLCGEDLIIKGISVHISNAEPKHNSNRQFERSGRFGGNPGGFGNQGGFGNSRGGGAGFGNNQGSNFGGGFNFGAFSFNPAMMAAAQAALQSSWGMMGMLASQQNQSGPSGNNQNQGNFQREPNQAFGSGNNSYSGSNSGAAFGWGSASNAGSGSGFNGGFGSSFDSKSSGWF", "values": [{"measurement": "binding result", "setting": "[8]", "value": "no binding"}]}]}
